Experimental data from patent publication US8241627B2, “Modified polypeptides stabilized in a desired conformation and methods for producing same” (The Center for Blood Research, Inc., priority 2000, dated 2012).

Legend:
ICAM-3 = biological target: T1, ICAM-3 (Homo sapiens, UniProt P32942); test: BIAcore binding of soluble αL I-domains to ICAM-3; details: 1:1 interaction model
T1 sequence (P32942 30-485 limits assumed): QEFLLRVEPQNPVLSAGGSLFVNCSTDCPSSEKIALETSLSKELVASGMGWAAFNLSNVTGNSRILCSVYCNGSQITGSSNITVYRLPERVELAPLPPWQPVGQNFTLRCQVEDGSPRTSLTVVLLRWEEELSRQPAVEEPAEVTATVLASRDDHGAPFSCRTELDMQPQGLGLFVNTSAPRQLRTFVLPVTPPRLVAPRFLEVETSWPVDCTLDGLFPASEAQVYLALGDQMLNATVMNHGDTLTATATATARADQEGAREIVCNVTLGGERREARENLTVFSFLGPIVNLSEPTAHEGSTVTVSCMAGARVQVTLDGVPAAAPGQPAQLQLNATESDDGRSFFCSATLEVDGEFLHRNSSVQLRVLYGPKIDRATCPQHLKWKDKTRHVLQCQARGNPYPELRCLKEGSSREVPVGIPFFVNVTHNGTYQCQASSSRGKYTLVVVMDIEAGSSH
Experimental: Briefly, recombinant mutant αL I-domain stabilized in the open conformation (K287C/K294C), or recombinant wild-type αL I-domain from amino acid residue G128 to Y307, were cloned into pET11b (Novagen) and expressed in E. coli induced with 1 mM IPTG for 4 hours. The recombinant proteins were purified from inclusion bodies by solubilization of inclusion bodies in 6M guanidine HCl and were refolded by dilution in the presence of 0.1 mM Cu^2+/phenanthrolin to enhance formation of disulfide bonds. Protein was concentrated by ammonium sulfate precipitation, dialyzed, and purified over a monoQ ion-exchange column. […] The recombinant proteins were then purified by gel filtration and concentrated by Centriprep. For BIAcore™ analysis, recombinant ICAM-1, ICAM-2 and ICAM-3 Fc chimeras were immobilized on the BIAcore™ sensor chip by an amine-coupling method. Recombinant αL I-domains were flowed in, and BIAcore™ assays were performed with Tris-buffered saline supplemented with 1 mM MgCl2 or 2 mM EDTA, at a flow rate of 10 μl/minute at 25° C.

[1] = system: murine T lymphoma cell line EL-4; test: PMA-induced LFA-1-dependent homotypic aggregation of EL-4 cells; assay type: cell-based; details: 50 ng/ml PMA, 2 hours at 37° C.
Experimental: Cells were incubated in a 96 well plate in the presence of 50 ng/ml PMA and varying amounts of soluble I-domains.

ICAM-1 = ICAM-1 (Homo sapiens, UniProt P05362); test: Binding of LFA-1 or isolated I-domain transfectants to immobilized ICAM-1; assay type: cell-based; set-up: ICAM-1 was purified from human tonsil; from tissue; host or cells: human tonsil
Experimental: Clones of the transfectants that expressed similar levels of cell surface LFA-1, as determined by flow cytometry using monoclonal antibody TS2/4 (FIG. 3B), were tested for their ability to bind to immobilized ICAM-1, as previously described (Lu, C and Springer, T A (1997) J Immunol 159:268-278).
Briefly, ICAM-1 was purified from human tonsil, and coated to 96-well plates as described previously (Lu, C and Springer T A, (1997) J Immunol 159:268-278). Cells were labeled with a florescence dye 2′,7′-bis-(carboxyethyl)-5(and-6)-carboxyfluorescein, acetoxymethyl ester (BCECF-AM), and resuspended to 1×10^6/ml in L15/FBS. 50 μl cell suspension was mixed in ICAM-1 coated wells with an equal volume of L15/FBS in the absence or presence of monoclonal antibody (CBRLFA-1/2, 10 μg/ml). Monoclonal antibodies were used at final concentration of 1:20 hybridoma supernatant, 1:200 ascites, or μg/ml purified IgG. For testing the effect of divalent cations, BCECF-AM-labeled cells were washed 2× with TS buffer, pH7.5 (20 mM Tris, pH 7.5, 150 mMNaCl) containing 5 mM EDTA, followed by 2 washes with TS buffer, pH7.5. Cells were then resuspended to 5×10^5/ml in the TS buffer, pH7.5 supplemented with 1 mM MgCl2/CaCl2, MgCl2, MnCl2 mM EDTA, and 100 μl cell suspension was added to ICAM-1 coated wells. After incubation at 37° C. for 30 minutes, unbound cells were washed off on a Microplate Autowasher (Bio-Tek Instruments, Winooski, Vt.). The fluorescence content of total input cells and the bound cells in each well was quantitated on a Fluorescent Concentration Analyzer (IDEXX, Westbrook, Me.). The bound cells were expressed as a percentage of total input cells per sample well.
For generating stable K562 transfectants that express the I-domain on the surface, 20 μg of SspI-linearized pcDNA3.1/Hygro(+) containing the sequences encoding the I domain and the PDGFR transmembrane domain was used to transfect K562 cells by electroporation as described above. Transfectants were selected for resistance to 100 μg/ml hygromycin B, and were further subcloned by cell sorting and limiting dilution; clones that expressed similar levels of surface wild-type and mutant I domain-PDGFR were selected for functional studies. Stable cell lines were maintained in RPMI medium 1640 supplemented with 10% FBS and 100 μg/ml hygromycin B. Cell surface expression of the isolated I-domains was determined by flow cytometry using antibody TS1/22 to the I-domain (FIG. 7). Two clones from each transfectant were selected and tested for binding to immobilized ICAM-1, and similar results were obtained with each of the two clones (FIG. 8A).
If the constitutive ligand binding activity of mutant K287C/K294C is due to the formation of a disulfide bond between the introduced C287 and C294, disruption of the disulfide bond with a reducing agent would abolish ligand binding ability of the mutant. Accordingly, the transfectants were treated with the reducing agent DTT (10 mM) in L15/FBS containing Mg^2+ and Ca^2+, and the ability of transfectants to bind to ICAM-1 was assessed.
Furthermore, the effect of divalent cations on ligand binding of the isolated I-domains expressed on the surface of K562 transfectants was tested. The binding reactions were performed in HEPES/NaCl/glucose (20 mM HEPES, pH 7.5, 140 mM NaCl, 2 mg/ml glucose) supplemented with 1 mM […], 1 mM Mg^2+, or 1 mM EDTA.

ICAM-1, sequence (P05362 28-532): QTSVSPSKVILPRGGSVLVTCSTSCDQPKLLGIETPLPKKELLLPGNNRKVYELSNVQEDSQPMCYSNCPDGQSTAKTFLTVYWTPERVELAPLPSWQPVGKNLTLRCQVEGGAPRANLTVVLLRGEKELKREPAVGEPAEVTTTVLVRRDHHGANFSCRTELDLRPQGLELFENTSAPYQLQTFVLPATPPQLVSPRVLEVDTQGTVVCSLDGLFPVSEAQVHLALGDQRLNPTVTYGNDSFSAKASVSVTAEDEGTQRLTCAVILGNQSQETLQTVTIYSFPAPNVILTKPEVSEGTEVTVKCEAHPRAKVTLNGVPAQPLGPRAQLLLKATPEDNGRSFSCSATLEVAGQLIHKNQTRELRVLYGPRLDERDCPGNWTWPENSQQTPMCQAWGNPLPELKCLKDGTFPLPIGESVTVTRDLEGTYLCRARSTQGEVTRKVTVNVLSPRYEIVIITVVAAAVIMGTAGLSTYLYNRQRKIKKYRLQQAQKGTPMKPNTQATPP

B1: K287C/K294C: human αL (LFA-1) I-domain with K287 and K294 replaced by cysteines; high affinity locked open; tested in intact LFA-1, cell-surface and soluble forms (protein)
chain: GNVDLVFLFDGSMSLQPDEFQKILDFMKDVMKKLSNTSYQFAAVQFSTSYKTEFDFSDYVKRKDPDALLKHVKHMLLLTNTFGAINYVATEVFREELGARPDATKVLIIITDGEATDSGNIDAAKDIIRYIIGIGKHFQTKESQETLHKFASKPASEFVCILDTFECLKDLFTELQKKIY
notes: human αL (LFA-1) I-domain with K287 and K294 replaced by cysteines; tested in intact LFA-1, cell-surface and soluble forms
- Koff, open I-domain binding to ICAM-3 (ICAM-3): 0.0749 s⁻¹
- Kon, open I-domain binding to ICAM-3 (ICAM-3): 19000 M⁻¹ s⁻¹
- inhibition of PMA-induced LFA-1 dependent homotypic aggregation [1]: inhibited
- binding of 293T transient transfectants to immobilized ICAM-1 (ICAM-1; 293T, no activating antibody): constitutively strong binding
- binding of K562 cells expressing isolated I-domains to immobilized ICAM-1 (ICAM-1; I-domain on cell surface via PDGFR transmembrane domain): strong binding
- binding of isolated I-domain to ICAM-1 after EDTA treatment (ICAM-1; K562, 1 mM EDTA): abolished
- binding of K562 stable transfectants to immobilized ICAM-1 with activating mAb CBRLFA-1/2 (ICAM-1; K562, CBRLFA-1/2 10 μg/ml): did not further enhance binding
- binding of K562 transfectants to ICAM-1 in the presence of EDTA (ICAM-1; K562, intact LFA-1, EDTA): abolished
- binding of K562 stable transfectants to immobilized ICAM-1 (ICAM-1; K562, no activating antibody): strongly bound
- effect of DTT treatment on binding to ICAM-1 (ICAM-1; K562 transfectants, DTT 10 mM in L15/FBS): abolished
